Source: patent publication US20190359687A1 (Bayer, published 2019)
Residue numbers refer to the chain shown, from its start.

Assays:
[1] = target: T1, human glycophorin A in the red blood cell membrane (human, UniProt P02724 20-150); assay: FACS, hu RBC
T1 construct: whole, on cells; used for intact RBC, isolated RBC membranes and transfected cells; the assay field tells which; also called GPA; hGPA
T1 sequence (looked up): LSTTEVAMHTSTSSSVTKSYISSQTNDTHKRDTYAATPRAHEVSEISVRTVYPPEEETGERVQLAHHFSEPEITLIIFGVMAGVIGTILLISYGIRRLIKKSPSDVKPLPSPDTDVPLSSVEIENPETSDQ
Description: (§1) Hybridomas were generated from the spleen cells of these mice and these hybriomas were screened first by fluorescence activated cell sorting (FACS) against isolated human and monkey (Cynomolgus monkey and Rhesus monkey) red blood cells (RBC) and then by ELISA against purified human glycophorin A protein (GPA). Isolated RBC were prepared from whole blood from normal human, cynomolgus monkey, and beagle dog, were anticoagulant with sodium heparin (Bioreclamation). 2-3 mL of whole blood was loaded gently on the top of 3 mL Ficoll Plus (Sigma Aldrich) then centrifuged at 500 g for 20 min at room temperature (RT). The RBC pellets were washed 3 times with 10 mL of PBS, and centrifuge 400 g for 10 min at RT. RBC pellets were re-suspended in PBS at the same total volume as the original blood volume to achieve the same RBC cell density as in whole blood and stored at 4° C. Purified human glycophorin A protein was obtained from Sigma Aldrich and coated on ELISA plates at 2 ug/ml. Binding of antibodies to human GPA was detected using appropriate secondary antibodies using methods well known in the art.

[2] = target: T2, dog red blood cells (dog); assay: FACS, dog RBC
T2 construct: also called dog RBC
Description: as §1

[3] = target: T3, Cynomolgus monkey glycophorin A on Cynomolgus monkey red blood cells (Cynomolgus monkey); assay: FACS, Cyno RBC
T3 construct: whole, on cells; also called Cyno RBC; Cyno GPA

[4] = target: T4, purified human glycophorin A protein (Sigma, cat # G5017) (human, UniProt P02724 20-150); assay: ELISA, hGPA
T4 construct: mature; also called Sigma hGPA; Sigma GPA
T4 sequence (looked up): T1 sequence (looked up)
Description: as §1

[5] = target: T3, Cynomolgus monkey glycophorin A on …; assay: FACS, Cyno #3 RBC
[6] = target: T5, Rhesus monkey glycophorin A on Rhesus monkey red blood cells (Rhesus monkey, UniProt A0A1D5Q349 20-150); assay: FACS, Rhesus RBC
T5 construct: whole, on cells; also called Rhesus RBC; monkey GPA
T5 sequence: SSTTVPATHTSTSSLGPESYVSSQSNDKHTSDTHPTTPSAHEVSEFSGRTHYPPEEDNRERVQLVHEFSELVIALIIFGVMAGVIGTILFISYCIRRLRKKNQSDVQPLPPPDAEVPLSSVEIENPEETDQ

[7] = target: T3, Cynomolgus monkey glycophorin A on …; assay: FACS, Cyno #2 RBC
[8] = target: T2, dog red blood cells; assay: FACS, Dog RBC
[9] = target: T1, human glycophorin A in the red blood …; assay: FACS, Human RBC
[10] = target: T3, Cynomolgus monkey glycophorin A on …; assay: FACS, Cyno #1 RBC
[11] = target: T6, Cynomolgus monkey glycophorin A on Cynomolgus monkey red blood cells (Cynomolgus monkey); assay: partition to Cyno RBC, human HemA plasma, 30 min;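 also: FVIII fusion spiked at 1 IU/mL into RBC suspension at whole-blood density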
T6 construct: whole, on cells; also called Cyno GPA; Cyno RBC
Description: (§2) To evaluate partition to cynomolgus monkey or human red blood cells, whole blood was draw from Cynomolgus monkey or normal human volunteers in to anticoagulant with 4% sodium citrate (Sigma, St Louis, Mo.). The red blood cells were purified by layering the whole blood on to ficoll followed by low speed centrifugation. The supernatant containing plasma, platelets and white blood cells was discarded and the red blood cell pellet was resuspended in 10 pellet volumes of PBS (50 mM Phosphate buffer, pH7.4, 150 mM NaCl). The red blood cells were then pelleted by slow speed centrifugation and the red blood cells re-suspended in 10 volumes of PBS. This washing step was repeated 4 more times and the red blood cells finally resuspended in a volume of plasma from Hemophilia patients with less than 1% of normal levels of FVIII (GeorgeKing Bio-Medical, Overland Park, Kans.) to generate a total volume equal to the initial blood volume such that the RBC density was equal to that of normal whole blood. BDD and RBC targeted FVIII molecules were then spiked into RBC suspension in HemA plasma at 1 IU/mL, and incubated at room temperature for 2-3 hours with gentle rotation. […] An additional control was performed in which BDD or RBC targeted FVIII molecules were added at 11U/ml into the same human hemophilia A plasma and incubated for 5 minutes and 180 mins. These samples were used to determine the input FVIII activity in the presence of plasma which was used to calculate the percentage of the molecule that was bound to RBC. All plasma samples were then assayed together for FVIII activity using the Coatest SP assay (DiaPharma, Columbus, Ohio). The assay was performed following the manufacturer's instructions in a 96-well plate format. […] The plate was incubated at 37° C. for 10 minutes with shaking between each reagent addition.

[12] = target: T6, Cynomolgus monkey glycophorin A on …; assay: partition to Cyno RBC, human HemA plasma, 15 min;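 also: FVIII fusion spiked at 1 IU/mL into RBC suspension at whole-blood density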
Description: as §2

[13] = target: T6, Cynomolgus monkey glycophorin A on …; assay: partition to Cyno RBC, human HemA plasma, 5 min;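 also: FVIII fusion spiked at 1 IU/mL into RBC suspension at whole-blood density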
Description: as §2

[14] = target: T6, Cynomolgus monkey glycophorin A on …; assay: partition to Cyno RBC, human HemA plasma, 1 min;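 also: FVIII fusion spiked at 1 IU/mL into RBC suspension at whole-blood density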
Description: as §2

[15] = target: T6, Cynomolgus monkey glycophorin A on …; assay: partition to Cyno RBC, human HemA plasma, 120 min;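 also: FVIII fusion spiked at 1 IU/mL into RBC suspension at whole-blood density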
[16] = target: T7, human glycophorin A on human red blood cells (human, UniProt P02724 20-150); assay: partition to human RBC, vWF deficient plasma, 5 min
T7 construct: whole, on cells; also called human GPA; huGPA
T7 sequence (looked up): T1 sequence (looked up)

[17] = target: T7, human glycophorin A on human red blood …; assay: partition to human RBC, vWF deficient plasma, 60 min
[18] = target: T7, human glycophorin A on human red blood …; assay: partition to human RBC, vWF deficient plasma, 15 min
[19] = target: T8, glycophorin A peptide GP5 (human, biotin at the N-terminus); assay: Octet, GP5 peptide on the probe, fusion protein in solution, 1:1 fit
T8 construct: Residues 42 to 61 of the human glycophorin A extracellular domain
T8 peptide: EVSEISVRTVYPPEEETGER

[20] = target: T6, Cynomolgus monkey glycophorin A on …; assay: partition to Cyno RBC, human HemA plasma, 60 min;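 also: FVIII fusion spiked at 1 IU/mL into RBC suspension at whole-blood density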
Description: as §2

[21] = target: T7, human glycophorin A on human red blood …; assay: partition to human RBC, vWF deficient plasma, 120 min
[22] = target: T7, human glycophorin A on human red blood …; assay: partition to human RBC, vWF deficient plasma, 1 min
[23] = target: T7, human glycophorin A on human red blood …; assay: partition to human RBC, vWF deficient plasma, 30 min

B1: 12C6A6/A5 (antibody, V domains shown)
VH: QVQLQQSGAELARPGASVKMSCKASGYTFTRYSMHWVKQRPGQGLEWIGYINPGTYSTNYNQKFKDRATLTADKSSSTAYMQLNSLTSEDSAVYYCQTGTRDYWGQGTTLTVSS
VL: QIVLTQSPPIMSASPGEKVTITCSAASSVSYIYWFQQKPGTSPKLWIYSTSSLPSGVPTRFSGSGSGTSYSLTISRMEAEDAATYYCHQRSSYPFTFGSGTKLEIR
notes: as m8
FACS signal [1]: 2840 relative flourescence units | FACS signal [2]: 0.96 relative flourescence units | FACS signal [3]: 7 relative flourescence units | EC50 [4]: 266 pM

B2: 8F9E9/F11 (antibody, V domains shown)
VH: QVQLQQSGAELARPGASVKMSCKASGYTFTSYSIHWIKQRPGQSLEWIGYINPNSDYANYNQKFKDKATLTTDKSSTTAYMQLSSLTTDDSAVYYCQTGTRDYWGQGTTLTVSS
VL: B1 VL with Q1H, P9A, T22I, A26R, I32M, S49A, T59A, F95Y, R106K
notes: as m8
FACS signal [1]: 2860 relative flourescence units | FACS signal [2]: 1.05 relative flourescence units | FACS signal [3]: 284 relative flourescence units | EC50 [4]: 159 pM

B3: 10F1B10/F3 (antibody, V domains shown)
VH: B1 VH with Q5L, K19R, M20I, S33A, Y56F
VL: B1 VL
notes: as m8
FACS signal [1]: 2860 relative flourescence units | FACS signal [2]: 1.04 relative flourescence units | FACS signal [3]: 280 relative flourescence units | EC50 [4]: 192 pM

B4: 1E4A2/F8 (antibody, V domains shown)
VH: B1 VH with S57Y
VL: B1 VL
notes: as m8
FACS signal [1]: 2560 relative flourescence units | FACS signal [2]: 1 relative flourescence units | FACS signal [3]: 272 relative flourescence units | EC50 [4]: 221 pM

B5: 6C12 scFv-Fc (Fc fusion)
scFv: RVQLQQSGAELARPGASVKMSCKASGYTFTTYTIHWVKQKTGQGLEWIGYINPSSDYTRYNPKFKDKATLTTDKSSSTAYMKLNSLASDDSAVYYCQTGTRDYWGQGTTLTVSSGGGGSGGGGSGGGGSQIVLTQSPPIMSASPGEKVTMTCSAASSVSYIYWFQQKPGTSPKLWIYSTSTLPSGVPTRFSGSGSGTSYSLTISRMEAEDAATYYCHQRNSFPFTFGSGTKLEIRGGGGAGGGGCKPCICTVPEVSSVFIFPPKPKDVLTITLTPKVTCVVVDISKDDPEVQFSWFVDDVEVHTAQTQPREEQFNSTFRSVSELPIMHQDWLNGKEFKCRVNSAAFPAPIEKTISKTKGRPKAPQVYTIPPPKEQMAKDKVSLTCMITDFFPEDITVEWQWNGQPAENYKNTQPIMDTDGSYFVYSKLNVQKSNWEAGNTFTCSVLHEGLHNHHTEKSLSHSPGK
notes: scFv fused to a mouse Fc fragment; printed order VH-linker-VL-Fc
FACS signal [5]: 602 Flourescent units | FACS signal [6]: 1450 Flourescent units | FACS signal [7]: 876 Flourescent units | FACS signal [8]: 1 Flourescent units | FACS signal [9]: 2040 Flourescent units | FACS signal [10]: 2 Flourescent units

B6: TPP-9049 FVIII-scFv fusion protein (other)
chain: ATRRYYLGAVELSWDYMQSDLGELPVDARFPPRVPKSFPFNTSVVYKKTLFVEFTDHLFNIAKPRPPWMGLLGPTIQAEVYDTVVITLKNMASHPVSLHAVGVSYWKASEGAEYDDQTSQREKEDDKVFPGGSHTYVWQVLKENGPMASDPLCLTYSYLSHVDLVKDLNSGLIGALLVCREGSLAKEKTQTLHKFILLFAVFDEGKSWHSETKNSLMQDRDAASARAWPKMHTVNGYVNRSLPGLIGCHRKSVYWHVIGMGTTPEVHSIFLEGHTFLVRNHRQASLEISPITFLTAQTLLMDLGQFLLFCHISSHQHDGMEAYVKVDSCPEEPQLRMKNNEEAEDYDDDLTDSEMDVVRFDDDNSPSFIQIRSVAKKHPKTWVHYIAAEEEDWDYAPLVLAPDDRSYKSQYLNNGPQRIGRKYKKVRFMAYTDETFKTREAIQHESGILGPLLYGEVGDTLLIIFKNQASRPYNIYPHGITDVRPLYSRRLPKGVKHLKDFPILPGEIFKYKWTVTVEDGPTKSDPRCLTRYYSSFVNMERDLASGLIGPLLICYKESVDQRGNQIMSDKRNVILFSVFDENRSWYLTENIQRFLPNPAGVQLEDPEFQASNIMHSINGYVFDSLQLSVCLHEVAYWYILSIGAQTDFLSVFFSGYTFKHKMVYEDTLTLFPFSGETVFMSMENPGLWILGCHNSDFRNRGMTALLKVSSCDKNTGDYYEDSYEDISAYLLSKNNAIEPRSFSQNPPVLKRHQREITRTTLQSDQEEIDYDDTISVEMKKEDFDIYDEDENQSPRSFQKKTRHYFIAAVERLWDYGMSSSPHVLRNRAQSGSVPQFKKVVFQEFTDGSFTQPLYRGELNEHLGLLGPYIRAEVEDNIMVTFRNQASRPYSFYSSLISYEEDQRQGAEPRKNFVKPNETKTYFWKVQHHMAPTKDEFDCKAWAYFSDVDLEKDVHSGLIGPLLVCHTNTLNPAHGRQVTVQEFALFFTIFDETKSWYFTENMERNCRAPCNIQMEDPTFKENYRFHAINGYIMDTLPGLVMAQDQRIRWYLLSMGSNENIHSIHFSGHVFTVRKKEEYKMALYNLYPGVFETVEMLPSKAGIWRVECLIGEHLHAGMSTLFLVYSNKCQTPLGMASGHIRDFQITASGQYGQWAPKLARLHYSGSINAWSTKEPFSWIKVDLLAPMIIHGIKTQGARQKFSSLYISQFIIMYSLDGKKWQTYRGNSTGTLMVFFGNVDSSGIKHNIFNPPIIARYIRLHPTHYSIRSTLRMELMGCDLNSCSMPLGMESKAISDAQITASSYFTNMFATWSPSKARLHLQGRSNAWRPQVNNPKEWLQVDFQKTMKVTGVTTQGVKSLLTSMYVKEFLISSSQDGHQWTLFFQNGKVKVFQGNQDSFTPVVNSLDPPLLTRYLRIHPQSWVHQIALRMEVLGCEAQDLYGGGSGGGGSGLVPRGSGGGSGGGGSGDIQLTQSPSFLSASVGDRVTITCRASSSVRYIYWFQQKPGKAPKLLIYATSFRQSGVPSRFSGSGSGTEYTLTISSLQPEDFATYYCHQRNSFPYTFGQGTKLEIKGGGGSGGGGSGGGGSGGGGSEVQLVQSGAEVKKPGASVKVSCKASGYTFTTYAIHWVRQAPGQGLEWMGYINPSSGYTRYNPKFKGRVTMTRDKSTSTAYMELRSLRSDDTAVYYCWTGTRDYWGQGTTVTVSS
notes: The entry is the mature protein; mostly a 2 chain molecule; also called BDD-C scFv; PPB 6733
% bound to Cyno RBC [11]: 67.5% | % bound to Cyno RBC [12]: 62.1% | % bound to Cyno RBC [13]: 48.2% | % bound to Cyno RBC [14]: 28.1% | % bound to Cyno RBC [15]: 73.8% | percentage bound to human RBC [16]: 48.5% | percentage bound to human RBC [17]: 77.8% | percentage bound to human RBC [18]: 64.8% | Kd [19]: 2400 pM | koff [19]: 0.00305 s⁻¹ | kon [19]: 1.27e+06 M⁻¹ s⁻¹ | % bound to Cyno RBC [20]: 72.2% | percentage bound to human RBC [21]: 80.3% | percentage bound to human RBC [22]: 24.6% | percentage bound to human RBC [23]: 72.5%

B7: 1E4 scFv-Fc (Fc fusion)
scFv: QVQLQQSGAELARPGASVKMSCKASGYTFTRYSMHWVKQRPGQGLEWIGYINPGTYYTNYNQKFKDRATLTADKSSSTAYMQLNSLTSEDSAVYYCQTGTRDYWGQGTTLTVSSGGGGSGGGGSGGGGSQIVLTQSPPIMSASPGEKVTITCSAASSVSYIYWFQQKPGTSPKLWIYSTSSLPSGVPTRFSGSGSGTSYSLTISRMEAEDAATYYCHQRSSYPFTFGSGTKLEIRGGGGAGGGGCKPCICTVPEVSSVFIFPPKPKDVLTITLTPKVTCVVVDISKDDPEVQFSWFVDDVEVHTAQTQPREEQFNSTFRSVSELPIMHQDWLNGKEFKCRVNSAAFPAPIEKTISKTKGRPKAPQVYTIPPPKEQMAKDKVSLTCMITDFFPEDITVEWQWNGQPAENYKNTQPIMDTDGSYFVYSKLNVQKSNWEAGNTFTCSVLHEGLHNHHTEKSLSHSPGK
notes: as m18
FACS signal [5]: 487 Flourescent units | FACS signal [7]: 453 Flourescent units | FACS signal [8]: 1 Flourescent units | FACS signal [9]: 1720 Flourescent units | FACS signal [10]: 1 Flourescent units

B8: 1H5B4/H12 (antibody, V domains shown)
VH: B2 VH
VL: DIVMTQSPSSLSVSAGEKVTMSCKSSQSLLNSGNQKNYLAWYQQKPGQPPKLLIYGASTRESGVPDRFTGSGSGTDFTLTISSVQAEDLAVYYCQNDHSYPYTFGGGTKLEIK
notes: as m8
FACS signal [1]: 1.05 relative flourescence units | FACS signal [3]: 0.93 relative flourescence units | EC50 [4]: 403 pM
